Measured values: article PMC5587775 (Nucleic Acids Research, 2017)

Target: T1, recombinant MyoD protein (UniProt P10085 1-318)
T1 sequence (looked up): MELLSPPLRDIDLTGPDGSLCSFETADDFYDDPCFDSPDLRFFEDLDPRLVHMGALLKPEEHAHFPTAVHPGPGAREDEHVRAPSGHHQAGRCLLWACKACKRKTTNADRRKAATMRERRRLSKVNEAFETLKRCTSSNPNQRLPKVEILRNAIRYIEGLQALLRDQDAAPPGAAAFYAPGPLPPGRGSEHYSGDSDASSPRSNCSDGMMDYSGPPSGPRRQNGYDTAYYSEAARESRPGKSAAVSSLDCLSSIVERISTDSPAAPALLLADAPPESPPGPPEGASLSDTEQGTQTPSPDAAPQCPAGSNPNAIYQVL
Assay: pull-down

fold retrieval with E-box motif DNA against without: 1.6 fold
B1: FoxO3 (natural protein, mouse (endogenous in C2C12), UniProt Q9WVH4 1-672, looked up)
chain: MAEAPASPVPLSPLEVELDPEFEPQSRPRSCTWPLQRPELQASPAKPSGETAADSMIPEEDDDEDDEDGGGRASSAMVIGGGVSSTLGSGLLLEDSAMLLAPGGQDLGSGPASAAGALSGGTPTQLQPQQPLPQPQPGAAGGSGQPRKCSSRRNAWGNLSYADLITRAIESSPDKRLTLSQIYEWMVRCVPYFKDKGDSNSSAGWKNSIRHNLSLHSRFMRVQNEGTGKSSWWIINPDGGKSGKAPRRRAVSMDNSNKYTKSRGRAAKKKAALQAAPESADDSPSQLSKWPGSPTSRSSDELDAWTDFRSRTNSNASTVSGRLSPILASTELDDVQDDDGPLSPMLYSSSASLSPSVSKPCTVELPRLTDMAGTMNLNDGLAENLMDDLLDNIALPPSQPSPPGGLMQRGSSFPYTAKSSGLGSPTGSFNSTVFGPSSLNSLRQSPMQTIQENRPATFSSVSHYGNQTLQDLLASDSLSHSDVMMTQSDPLMSQASTAVSAQNARRNVMLRNDPMMSFAAQPTQGSLVNQNLLHHQHQTQGALGGSRALSNSVSNMGLSDSSSLGSAKHQQQSPASQSMQTLSDSLSGSSLYSASANLPVMGHDKFPSDLDLDMFNGSLECDMESIIRSELMDADGLDFNFDSLISTQNVVGLNVGNFTGAKQASSQSWVPG
